Experimental data as given in patent US20210054097A1 (Novo Nordisk, published 2021).
Each block holds one binder with its values, some of them ahead of it. Ends that are not written are not given here.

Legend:
[1] = target: T1, human plasma-derived Factor X zymogen (human, UniProt P00742 41-179; P00742 183-488); experiment: SPR steady state, Nb captured by anti-His mAb, FX injected
T1 construct: Plasma-derived, bought (Haematologic Technologies); also called FX; human FX
Method: Binding of purified anti-FX Nanobodies (Nb) to human plasma-derived FX (Haematologic Technologies Inc, USA) was probed by Surface Plasmon Resonance (SPR) (Biacore T200). Briefly, anti-His mAb (MAB050 from R&D systems) was immobilised on a CM4 sensor chip using standard amine coupling chemistry. Anti-FX Nanobodies (10 nM), according to Table 3, was injected at a flow rate of 10 μL/min for 1 minute. Subsequently 4096, 1024, 256, 64, 16, 4, and 0 nM of FX were injected at a flow rate of 30 μL/min for 4 minutes to allow for binding to anti-FX Nb followed by a 5 minutes running buffer (10 mM HEPES, 150 mM NaCl, 5 mM CaCl₂, 0.05% (v/v) Surfactant P20, 1 mg/mL bovine serum albumin, pH 7.4) injection allowing dissociation from anti-FX Nanobody®. The running buffer was also for dilution of anti-FX Nb and FX samples. Regeneration of the chip was achieved using a regeneration buffer consisting of 3M MgCl₂, 30 seconds contact time, and a 30 μL/min flow rate. The binding data were collected at 25° C. and were analysed according to a 1:1 model using BiaEvaluation 4.1 supplied by the manufacturer (Biacore AB, Uppsala, Sweden).
Therefore, the reported KD values are determined based on steady state analysis. The strongest binder identified is Nb702C12, while the others Nanobodies® tested binds FX with a slightly higher KD and lower Rₘₐₓ.

[2] = target: T2, FX activation peptide 12-mer TENPFDLLDFNQ (human); experiment: peptide ELISA
T2 peptide: TENPFDLLDFNQ-biotin
Summary of the method: (§1)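 Nanobodies (FLAG-tagged) or IgG antibodies, 2 μg/mL, incubated 1 h on C-terminally biotinylated peptide captured via streptavidin, washing buffer pH 8.60 containing CaCl₂ and Tween 20. Read-out: HRP-conjugated secondary antibody with TMB colour development.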

[3] = target: T3, FX activation peptide 12-mer ADLDPTENPFDL (human); experiment: peptide ELISA
T3 peptide: ADLDPTENPFDL-biotin
Summary of the method: as §1

[4] = target: T4, FX activation peptide 12-mer QTQPERGDNNLT (human); experiment: peptide ELISA
T4 peptide: QTQPERGDNNLT-biotin
Summary of the method: as §1

[5] = target: T5, FX activation peptide 12-mer SITWKPYDAADL (human); experiment: peptide ELISA
T5 peptide: SITWKPYDAADL-biotin
Summary of the method: as §1

[6] = target: T6, FX activation peptide 12-mer EAPDSITWKPYD (human); experiment: peptide ELISA
T6 peptide: EAPDSITWKPYD-biotin
Summary of the method: as §1

[7] = target: T7, FX activation peptide 12-mer ITWKPYDAADLD (human); experiment: peptide ELISA
T7 peptide: ITWKPYDAADLD-biotin
Summary of the method: as §1

[8] = target: T8, FX activation peptide 12-mer LDFNQTQPERGD (human); experiment: peptide ELISA
T8 peptide: LDFNQTQPERGD-biotin
Summary of the method: as §1

[9] = target: T9, FX activation peptide 12-mer TWKPYDAADLDP (human); experiment: peptide ELISA
T9 peptide: TWKPYDAADLDP-biotin
Summary of the method: as §1

[10] = target: T10, FX activation peptide 12-mer TSSSGEAPDSIT (human); experiment: peptide ELISA
T10 peptide: TSSSGEAPDSIT-biotin
Summary of the method: as §1

[11] = target: T11, FX activation peptide 12-mer SSGEAPDSITWK (human); experiment: peptide ELISA
T11 peptide: SSGEAPDSITWK-biotin
Summary of the method: as §1

[12] = target: T12, FX activation peptide 12-mer DLDPTENPFDLL (human); experiment: peptide ELISA
T12 peptide: DLDPTENPFDLL-biotin
Summary of the method: as §1

[13] = target: T13, FX activation peptide 12-mer TQPERGDNNLTR (human); experiment: peptide ELISA
T13 peptide: TQPERGDNNLTR-biotin
Summary of the method: as §1

[14] = target: T14, FX activation peptide 12-mer LDPTENPFDLLD (human); experiment: peptide ELISA
T14 peptide: LDPTENPFDLLD-biotin
Summary of the method: as §1

[15] = target: T15, FX activation peptide 12-mer QATSSSGEAPDS (human); experiment: peptide ELISA
T15 peptide: QATSSSGEAPDS-biotin
Summary of the method: as §1

[16] = target: T16, FX activation peptide 12-mer DAADLDPTENPF (human); experiment: peptide ELISA
T16 peptide: DAADLDPTENPF-biotin
Summary of the method: as §1

[17] = target: T17, FX activation peptide 12-mer ENPFDLLDFNQT (human); experiment: peptide ELISA
T17 peptide: ENPFDLLDFNQT-biotin
Summary of the method: as §1

[18] = target: T18, FX activation peptide 12-mer KPYDAADLDPTE (human); experiment: peptide ELISA
T18 peptide: KPYDAADLDPTE-biotin
Summary of the method: as §1

[19] = target: T19, FX activation peptide 12-mer APDSITWKPYDA (human); experiment: peptide ELISA
T19 peptide: APDSITWKPYDA-biotin
Summary of the method: as §1

[20] = target: T20, FX activation peptide 12-mer GEAPDSITWKPY (human); experiment: peptide ELISA
T20 peptide: GEAPDSITWKPY-biotin
Summary of the method: as §1

[21] = target: T21, FX activation peptide 12-mer LLDFNQTQPERG (human); experiment: peptide ELISA
T21 peptide: LLDFNQTQPERG-biotin
Summary of the method: as §1

[22] = target: T22, FX activation peptide 12-mer PDSITWKPYDAA (human); experiment: peptide ELISA
T22 peptide: PDSITWKPYDAA-biotin
Summary of the method: as §1

[23] = target: T23, FX activation peptide 12-mer PYDAADLDPTEN (human); experiment: peptide ELISA
T23 peptide: PYDAADLDPTEN-biotin
Summary of the method: as §1

[24] = target: T24, FX activation peptide 12-mer DPTENPFDLLDF (human); experiment: peptide ELISA
T24 peptide: DPTENPFDLLDF-biotin
Summary of the method: as §1

T1 sequence (P00742 41-179, chain 1 of 2): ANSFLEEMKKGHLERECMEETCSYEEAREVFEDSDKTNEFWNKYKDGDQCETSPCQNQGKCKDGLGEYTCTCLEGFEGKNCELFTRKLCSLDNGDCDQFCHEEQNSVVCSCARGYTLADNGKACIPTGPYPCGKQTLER
T1 sequence (P00742 183-488, chain 2 of 2): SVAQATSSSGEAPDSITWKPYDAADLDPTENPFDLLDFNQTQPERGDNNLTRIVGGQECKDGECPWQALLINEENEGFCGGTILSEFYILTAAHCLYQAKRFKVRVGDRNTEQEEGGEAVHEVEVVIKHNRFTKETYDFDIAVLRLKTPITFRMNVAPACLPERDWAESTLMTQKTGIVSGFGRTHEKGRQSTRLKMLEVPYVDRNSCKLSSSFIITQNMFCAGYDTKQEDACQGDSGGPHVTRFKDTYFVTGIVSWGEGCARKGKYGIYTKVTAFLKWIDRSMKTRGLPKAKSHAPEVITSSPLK

Kd [1]: 2100 nM | ELISA signal relative to background [2]: 4.38 | ELISA signal relative to background [3]: 0.73 | ELISA signal relative to background [5]: 0.84 | ELISA signal relative to background [6]: 0.79 | ELISA signal relative to background [7]: 0.83 | ELISA signal relative to background [8]: 0.82 | ELISA signal relative to background [9]: 0.92 | ELISA signal relative to background [10]: 0.97 | ELISA signal relative to background [11]: 0.89 | ELISA signal relative to background [12]: 0.82 | ELISA signal relative to background [13]: 0.93 | ELISA signal relative to background [14]: 0.84 | ELISA signal relative to background [15]: 0.77 | ELISA signal relative to background [16]: 0.81 | ELISA signal relative to background [17]: 3.43 | ELISA signal relative to background [18]: 0.88 | ELISA signal relative to background [19]: 0.82 | ELISA signal relative to background [20]: 0.86 | ELISA signal relative to background [21]: 1.09 | ELISA signal relative to background [22]: 0.83 | ELISA signal relative to background [23]: 0.88 | ELISA signal relative to background [24]: 2.87
B1: Nb 701B09 (VHH)
VHH: EVQLVESGGGVVQPGGSLRLSCAASGRTFSTYAMGWFRQAPGKEREFVAAISWSGSRTYYADSVKGRFTISRDNSKNTVYLQMNSLRPEDTALYYCAADATPANGELDYWGQGTLVTVSS
notes: monovalent Nanobody; also called Nb 701609; not shown: C-terminal FLAG3 and HIS6 tag
ELISA signal relative to background [4]: 0.72

Kd [1]: 2400 nM | ELISA signal relative to background [3]: 0.77 | ELISA signal relative to background [5]: 1.04 | ELISA signal relative to background [6]: 0.76 | ELISA signal relative to background [7]: 0.89 | ELISA signal relative to background [8]: 0.79 | ELISA signal relative to background [9]: 0.91 | ELISA signal relative to background [10]: 0.75 | ELISA signal relative to background [11]: 0.74 | ELISA signal relative to background [12]: 0.74 | ELISA signal relative to background [13]: 0.88 | ELISA signal relative to background [14]: 0.8 | ELISA signal relative to background [15]: 0.81 | ELISA signal relative to background [16]: 0.7 | ELISA signal relative to background [18]: 0.73 | ELISA signal relative to background [19]: 0.9 | ELISA signal relative to background [20]: 0.8 | ELISA signal relative to background [21]: 0.8 | ELISA signal relative to background [22]: 0.84 | ELISA signal relative to background [23]: 0.73
B2: Nb 701D07 (VHH)
VHH: EVQLVESGGGVVQPGGSLRLSCAASGGTLSRYAMGWFRQAPGKEREFVAAITRRGSRTYYADSVKGRFTISRDNSKNTVYLQMNSLRPEDTALYYCAADLAPGDYALDYWGQGTLVTVSS
notes: monovalent Nanobody; not shown: C-terminal FLAG3 and HIS6 tag
ELISA signal relative to background [4]: 0.79

Kd [1]: 1200 nM | ELISA signal relative to background [2]: 4.84 | ELISA signal relative to background [3]: 0.91 | ELISA signal relative to background [5]: 1.08 | ELISA signal relative to background [6]: 0.97 | ELISA signal relative to background [7]: 1.1 | ELISA signal relative to background [8]: 0.97 | ELISA signal relative to background [9]: 1.13 | ELISA signal relative to background [10]: 0.77 | ELISA signal relative to background [11]: 0.88 | ELISA signal relative to background [12]: 1 | ELISA signal relative to background [13]: 1.05 | ELISA signal relative to background [14]: 1.11 | ELISA signal relative to background [15]: 0.96 | ELISA signal relative to background [16]: 0.88 | ELISA signal relative to background [17]: 4 | ELISA signal relative to background [18]: 0.8 | ELISA signal relative to background [19]: 1.06 | ELISA signal relative to background [20]: 0.93 | ELISA signal relative to background [22]: 1.05 | ELISA signal relative to background [23]: 0.83 | ELISA signal relative to background [24]: 4.16
B3: Nb 702C12 (VHH)
VHH: EVQLVESGGGVVQPGGSLRLSCVASGRTFSRYAMGWFRQAPGKEREFVAAISRRGGSTNYADSVKGRFTISRDNSKNTVYLQMNSLRPEDTALYYCAADYSSGDGYLDYWGQGTLVTVSS
notes: as for B2
ELISA signal relative to background [4]: 0.88
